Experimental findings from the supplement of paper PMC9170038 are described below.

The subject of data set [1] is MS2 coat protein. Description: apparent KD of MS2 coat protein, switch ON state; designed switch direction (-1 OFF switch, 1 ON switch): -1; higher = weaker reporter binding. To be noted: FMN input: 0 or 200 uM; Eterna round: R93 (includes R88 designs). The essentials: (§1)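 Titrations with SNAP-549-labelled MS2 coat protein ran in twofold steps from 0.7 or 1.5 nM to 3 µM, each step taking 0.8–1.5 h at the start and 10–20 min toward the end. The targets were designed RNA switches transcribed on-chip from Illumina sequencing clusters, held in 100 mM Tris-HCl pH 7.5, 80 mM KCl, 4 mM MgCl2, without or with constant ligand. Apparent KD was taken per design as the median of normalised cluster binding-curve fits.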

For data set [2], the system named is MS2 coat protein. Put plainly: apparent KD of MS2 coat protein, switch OFF state (with FMN for OFF switches, without FMN for ON switches); designed switch direction (-1 OFF switch, 1 ON switch): -1; higher = weaker reporter binding. The settings on record: FMN input: 0 or 200 uM; Eterna round: R93 (includes R88 designs). The essentials: as §1

Turning to “AACUGACAUGAGGAUCACCCAUGUCAGGAUAUGCUUCAUAAAAAAAAAAAAAAAUGAUGCAGAAGGGAUAUGGA [Design 36 :P Sub-opt 12]”, the “apparent KD of MS2 coat protein” value in the data set with MS2 coat protein [1] amounted to 21.5 nM; with MS2 coat protein [2] it was 13.6 nM.
Take “AAGAAGUGAGGAUAUCGAAGACUGUCGAAAAGACAGUCGAACGAGAAGGCACAUGAGGAUCACCCAUGUGAUAA [Mat - Exaclusion 4 - Eli mod - D70]”: the entries for the “apparent KD of MS2 coat protein” value in the data set with MS2 coat protein [1] and with MS2 coat protein [2] were 28.2 nM and 107 nM, respectively.
Consider “AACUGGGCAGGAUAUACAUGAGGAUCACCCAUGUAAAGAAAAGAAAGGUCCGAGGAAAGUAGAAGGGCCUGGAA [Variant 5 of Mod 1 of Ex3 sub 3, by Tesla's Dusciple Round 1]”, for which the “apparent KD of MS2 coat protein” value with MS2 coat protein [1] came to 40.6 nM; in the data set with MS2 coat protein [2], 38.9 nM.
The corresponding values for “AGUUGGCGAGGAUAUACAUGAGGAUCACCCAUGUGAAAGAAAAAAGUGAAAAAGAAAAGUAGAAGGCGCUGACA [73%, Moding Norbert Elias, 4]” are 31.3 nM and 131 nM.
The corresponding values for “AAGAACAGAGGAUAUACUAAAGAAAUGAAAAGAAAGAAAGAACAUGAGGAUCACCCAUGUAGAAGGCUGAAGAA [Yakbim Sekhaenre]” are 25.9 nM and 13.5 nM.
As for “AAAAAACAUGAGGAUCACCCAUGUGAGGAUAUCCAGAAGGGAAUAAAAUAACACGAAAGGAGAAGGCACAAAAA [Ex 1 May 36]”, the “apparent KD of MS2 coat protein” value worked out at 34 nM in the data set on MS2 coat protein [1] and 31.7 nM with MS2 coat protein [2].
Regarding “AAGAAUGAAGGAUAUACAUGAGGAUCACCCAUGUAAGAGAAAGAGGGAAAAGAGAAAAGUAGAAGGUCAAAGAA [Ruby 72]”, the entries for the “apparent KD of MS2 coat protein” value with MS2 coat protein [1] and in the data set with MS2 coat protein [2] were 22 nM and 33.7 nM, respectively.
For the sequence “GGAAAACAUGAGGAUCACCCAUGUAAGGAUAUGCUAAAAAAAAAAAAAAACCCACCAGGCAGAAGGUACUAAAG [Janelle Amethyst 18 Mod 2 - Jieux - Exclusion 1]”, the “apparent KD of MS2 coat protein” value in the data set with MS2 coat protein [1] worked out at 20.4 nM; with MS2 coat protein [2] it was 26.8 nM.
Turning to “GUAAACCUAGGAUAUACAUGAGGAUCACCCAUGUAAAGUUUCGUAAAAAGAAAAUCGAGUAGAAGGAGGUAGAU [JR_Exc003_Sub1222]”, the “apparent KD of MS2 coat protein” value came out at 22.5 nM with MS2 coat protein [1] and 26.6 nM with MS2 coat protein [2].
The matching figures for “CAAAAGCUAGGAUAUGCUAAUUGUUCCUUAAGUCAAAAUAAACAUGAGGAUCACCCAUGUAGAAGGAGCCCACA [Tegean]”: 31.5 nM and 16.9 nM.
For “CUUAUGUCAGGAUAUCAGUAGUAAAAAAAUAAAAUUACUACUGAGAAGGGACAUGAGGAUCACCCAUGUCCGGG [EX4 369: Super Stable 69]”, the “apparent KD of MS2 coat protein” value came out at 78.4 nM in the data set on MS2 coat protein [1] and 34 nM in the data set on MS2 coat protein [2].
For the sequence “AGUGAGUGAGGAUAUUACUGAAGAAUAAAAGAAAUAACGAGUAAGAAGGCACAUGAGGAUCACCCAUGUACACA [May 62]”, the “apparent KD of MS2 coat protein” value with MS2 coat protein [1] amounted to 25.5 nM; in the data set on MS2 coat protein [2], 24 nM.
The corresponding values for “AAAAAGGUAGGAUAUACAUGAGGAUCACCCAUGUCGCGGCGCGCGGACAGCCCGCCCUGUAGAAGGACCAAAAA [Default title]” are 35 nM and 28.6 nM.
The matching figures for “AGGAAACAUGAGGAUCACCCAUGUCAGGAUAUACAAAAGAAAAGAAAAGAAAGAAGAAGUAGAAGGGACACGAA [Double Falcon]”: 25.1 nM and 22.5 nM.
For “AACCAACAUGAGGAUCACCCAUGUCAGGAUAUGCAAACAACAAACAACAAACAACAAAGCAGAAGGGACAAAAA [Amethyst 82]”, the “apparent KD of MS2 coat protein” value was 17.8 nM with MS2 coat protein [1] and 19.5 nM in the data set on MS2 coat protein [2].
Consider “AUAAAGUGAGGAUAUGCUAAUAAAUAAAUAGACAAAUAAAUGCAGAAGGCACAUGAGGAUCACCCAUGUAAGAA [Ex 4 Tesla 3]”, for which the “apparent KD of MS2 coat protein” value with MS2 coat protein [1] is 28.4 nM; in the data set with MS2 coat protein [2], 28.9 nM.
With “AGUCAUACAGGAUAUACAUGAGGAUCACCCAUGUAAAUCCUAAAAAAGUGAUCCUCAUGUAGAAGGGUAUGACA [EX3 220: Super Stable 20]”, the results for the “apparent KD of MS2 coat protein” value in the data set on MS2 coat protein [1] and in the data set with MS2 coat protein [2] were 19.1 nM and 19.7 nM, respectively.
“AAGAAGGUAGGAUAUACUAACGAAACUAAUGCAUAGAUAAAACAUGAGGAUCACCCAUGUAGAAGGGCCAGAAU [JR_Exc002_Sub015]”: the “apparent KD of MS2 coat protein” value is 43.8 nM in the data set with MS2 coat protein [1] and 26.6 nM in the data set with MS2 coat protein [2].
Regarding “AACAGUACAGGAUAUACAUGAGGAUCACCCAUGUAAAAAUAAAAAGGGAACUCAAAAAGUAGAAGGGUACUGGA [Moding Maslow revisited (73) 14]”, the “apparent KD of MS2 coat protein” value with MS2 coat protein [1] came to 72.6 nM; with MS2 coat protein [2], 32.5 nM.
For the sequence “AAAAAGUCAGGAUAUGUGGAAAAAAUAAAAAAAAUAAAAACACAGAAGGGACAUGAGGAUCACCCAUGUUAAAA [Ex 4 May 18]”, the “apparent KD of MS2 coat protein” value was 45.4 nM in the data set with MS2 coat protein [1] and 35.1 nM in the data set on MS2 coat protein [2].
The corresponding values for “AAGGGACAUGAGGAUCACCCAUGUCAGGAUAUGAUGCGAAUAAAGAAAGAAGAAAGCAUCAGAAGGGACGCCUA [58%, Disencluded 3, 6]” are 19.3 nM and 27.6 nM.
For the sequence “AGCAAGUGAGGAUAUCUGGAUAGGAAAAAGAAAACCUAUCCAGAGAAGGCACAUGAGGAUCACCCAUGUAAAAA [JL cataway mod 7]”, the “apparent KD of MS2 coat protein” value with MS2 coat protein [1] was 39.1 nM; in the data set with MS2 coat protein [2] it was 41.4 nM.
For “CAGUACUGAGGAUAUACAUGAGGAUCACCCAUGUGGUUAAGCUAGGAAACUAGCACAUGUAGAAGGCAGUACUG [Ex3: 814]”, the “apparent KD of MS2 coat protein” value in the data set with MS2 coat protein [1] worked out at 50.1 nM; in the data set with MS2 coat protein [2], 19.5 nM.
The corresponding values for “CAUUCACAUGAGGAUCACCCAUGUAAGGAUAUCGAAAUAAAACUAAUCAAUAAACAAACGAGAAGGUACAAAAA [Exclusion 1 design 9]” are 26 nM and 21.2 nM.
As to “ACGUUGAGAGGAUAUACGAACAUGUCAAAAGACGUGAAGGGACAUGAGGAUCACCCAUGUAGAAGGCUCAACGA [Mat - Exclusion 2 - JL mod - D9]”, the “apparent KD of MS2 coat protein” value with MS2 coat protein [1] was 46.3 nM; with MS2 coat protein [2] it was 186 nM.
On to “CCUAUGUCAGGAUAUCAGUAGUAAAAAAAAAAAAUUACUACUGAGAAGGGACAUGAGGAUCACCCAUGUCCAAA [EX4 312: Super Stable 12]”, for which the “apparent KD of MS2 coat protein” value stood at 25.6 nM in the data set with MS2 coat protein [1] and 18.4 nM in the data set on MS2 coat protein [2].
With “AAAAAACAUGAGGAUCACCCAUGUCAGGAUAUGAACGAAAAUAAAUAAAAAUAAAAGUUCAGAAGGGACGAAAA [66%, Wbt, 17]”, the “apparent KD of MS2 coat protein” value turned out to be 38 nM with MS2 coat protein [1] and 41.5 nM with MS2 coat protein [2].
Take “GAACACGGAGGAUAUACAUGAGGAUCACCCAUGUUGAUCCUCAUUAAAAUUGAUAAAUGUAGAAGGCCGUGAUA [Exclusion 3.11 (a Vinnie Mod, FMN+ favored more)]”: the “apparent KD of MS2 coat protein” value in the data set with MS2 coat protein [1] is 49.4 nM; in the data set with MS2 coat protein [2], 21.2 nM.
As for “GAUAGUGAAGGAUAUACUGGAGGAGUGCGAUAGAAGAAAGAACAUGAGGAUCACCCAUGUAGAAGGUCAGAAGU [JR_Exc002_Sub1225]”, the “apparent KD of MS2 coat protein” value was determined as 32.3 nM in the data set with MS2 coat protein [1] and 27.2 nM with MS2 coat protein [2].
Regarding “CUUAGACAUGAGGAUCACCCAUGUGAGGAUAUGAUGCGAAUAAAGAAAGAAGAAAGCAUCAGAAGGCACAUAUG”, the “apparent KD of MS2 coat protein” value in the data set with MS2 coat protein [1] was 41.3 nM; in the data set with MS2 coat protein [2] it was 545 nM.
For the sequence “GAAGAACAUGAGGAUCACCCAUGUCAGGAUAUGCAGAAGGGAAUAAUAACUUCUGGAAGCAGAAGGGACAAGAA [Ex 1 May 47]”, the “apparent KD of MS2 coat protein” value was 29.6 nM with MS2 coat protein [1] and 30.5 nM with MS2 coat protein [2].
Take “AAAAAACAUGAGGAUCACCCAUGUGAGGAUAUCGUGCAGAAAAAAAAAAAAAACUGCACGAGAAGGCACAUGAA”: the “apparent KD of MS2 coat protein” value in the data set on MS2 coat protein [1] amounted to 38.9 nM; in the data set with MS2 coat protein [2], 105 nM.
On to “AAAAAGAGAGGAUAUACAUGAGGAUCACCCAUGUGAAAGACGAAAAAAAGUCUAAAGUGUAGAAGGCUCAAAAA [65%, Moding Exclusion3-cac2, 14]”, for which the “apparent KD of MS2 coat protein” value in the data set on MS2 coat protein [1] came to 25.3 nM; in the data set on MS2 coat protein [2], 104 nM.
Take “AGGUGACAUGAGGAUCACCCAUGUCAGGAUAUAUACACCACCGGCGUGAAGCCGGCGGAUAGAAGGGACAAAAU [Anesar]”: the figures for the “apparent KD of MS2 coat protein” value in the data set on MS2 coat protein [1] and in the data set with MS2 coat protein [2] were 15.6 nM and 18.2 nM, respectively.
With “AAUAAGUGAGGAUAUGGAAAUAGUAGAUAAGAUACCCUAAACCAGAAGGCACAUGAGGAUCACCCAUGUAAAUA [JR_Exc004_Sub004]”, the results for the “apparent KD of MS2 coat protein” value in the data set with MS2 coat protein [1] and in the data set on MS2 coat protein [2] were 32.7 nM and 23.7 nM, respectively.
Take “AAGAAGGUAGGAUAUACUAAAGAAACUAAUGCAAAGAUAAAACAUGAGGAUCACCCAUGUAGAAGGGCCAGAAA [JR_Exc002_Sub016]”: the “apparent KD of MS2 coat protein” value in the data set on MS2 coat protein [1] is 35.6 nM; in the data set with MS2 coat protein [2], 25.1 nM.
The matching figures for “GCUGUCCAAGGAUAUACAUGAGGAUCACCCAUGUGAGAGAAAAAAGUGAGAAAGAAAAGUAGAAGGUGGGUAGG [salish99-ex3-103]”: 31.6 nM and 56.6 nM.
With “AAAACACAUGAGGAUCACCCAUGUGAGGAUAUGCUAGUGAAAAUAAAAAUAAAACAUAGCAGAAGGCACAAGGA [Amethyst 79]”, the “apparent KD of MS2 coat protein” value in the data set on MS2 coat protein [1] is 43.7 nM; in the data set on MS2 coat protein [2], 45.8 nM.
Turning to “AACAGUACAGGAUAUACAUGAGGAUCACCCAUGUAAAAUAAAUAAAAAUAAAAAGGAAGUAGAAGGGUACUGGA [Moding Maslow revisited (73) 18]”, the “apparent KD of MS2 coat protein” value is 30.1 nM with MS2 coat protein [1] and 26.4 nM in the data set with MS2 coat protein [2].
In the case of “AAAAAGUGAGGAUAUUCGGAUAGGAAAACGAAAACCUAUCCGAAGAAGGCACAUGAGGAUCACCCAUGUAAAGA [Mat - Exaclusion 4 - Eli mod - D40]”, the “apparent KD of MS2 coat protein” value in the data set on MS2 coat protein [1] came to 30.8 nM; in the data set on MS2 coat protein [2] it was 40.2 nM.
